Experimental data: patent US20240287172A1 (SCIRHOM, published 2024)

T1: hiR2-FL-S562E-T7 (human, UniProt Q6PJF5 1-856)
T1 sequence: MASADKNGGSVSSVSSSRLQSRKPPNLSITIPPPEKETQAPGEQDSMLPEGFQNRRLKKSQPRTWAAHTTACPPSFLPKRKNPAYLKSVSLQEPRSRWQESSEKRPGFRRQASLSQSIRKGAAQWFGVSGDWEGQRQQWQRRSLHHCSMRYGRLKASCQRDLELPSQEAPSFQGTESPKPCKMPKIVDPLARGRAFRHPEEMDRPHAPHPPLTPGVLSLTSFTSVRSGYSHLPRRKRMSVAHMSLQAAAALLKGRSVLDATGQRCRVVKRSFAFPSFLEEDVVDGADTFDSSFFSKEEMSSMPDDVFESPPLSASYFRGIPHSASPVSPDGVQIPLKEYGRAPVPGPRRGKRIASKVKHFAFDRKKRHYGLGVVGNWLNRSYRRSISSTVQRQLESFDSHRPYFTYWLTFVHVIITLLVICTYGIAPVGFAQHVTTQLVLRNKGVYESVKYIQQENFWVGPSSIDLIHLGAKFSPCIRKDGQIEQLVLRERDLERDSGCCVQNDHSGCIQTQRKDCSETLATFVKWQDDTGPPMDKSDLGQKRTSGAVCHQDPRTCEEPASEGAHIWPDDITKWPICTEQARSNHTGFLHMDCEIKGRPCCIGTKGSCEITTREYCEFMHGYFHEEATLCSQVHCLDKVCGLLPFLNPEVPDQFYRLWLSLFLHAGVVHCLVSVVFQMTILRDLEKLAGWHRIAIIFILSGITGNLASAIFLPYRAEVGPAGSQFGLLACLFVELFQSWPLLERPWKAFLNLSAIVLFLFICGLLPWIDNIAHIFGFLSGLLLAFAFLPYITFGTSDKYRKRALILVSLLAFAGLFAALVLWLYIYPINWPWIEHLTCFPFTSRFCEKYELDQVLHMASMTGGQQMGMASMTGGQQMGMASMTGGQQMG

T2: hiR2-FL-Q527P-T7 (human, UniProt Q6PJF5 1-856)
T2 sequence: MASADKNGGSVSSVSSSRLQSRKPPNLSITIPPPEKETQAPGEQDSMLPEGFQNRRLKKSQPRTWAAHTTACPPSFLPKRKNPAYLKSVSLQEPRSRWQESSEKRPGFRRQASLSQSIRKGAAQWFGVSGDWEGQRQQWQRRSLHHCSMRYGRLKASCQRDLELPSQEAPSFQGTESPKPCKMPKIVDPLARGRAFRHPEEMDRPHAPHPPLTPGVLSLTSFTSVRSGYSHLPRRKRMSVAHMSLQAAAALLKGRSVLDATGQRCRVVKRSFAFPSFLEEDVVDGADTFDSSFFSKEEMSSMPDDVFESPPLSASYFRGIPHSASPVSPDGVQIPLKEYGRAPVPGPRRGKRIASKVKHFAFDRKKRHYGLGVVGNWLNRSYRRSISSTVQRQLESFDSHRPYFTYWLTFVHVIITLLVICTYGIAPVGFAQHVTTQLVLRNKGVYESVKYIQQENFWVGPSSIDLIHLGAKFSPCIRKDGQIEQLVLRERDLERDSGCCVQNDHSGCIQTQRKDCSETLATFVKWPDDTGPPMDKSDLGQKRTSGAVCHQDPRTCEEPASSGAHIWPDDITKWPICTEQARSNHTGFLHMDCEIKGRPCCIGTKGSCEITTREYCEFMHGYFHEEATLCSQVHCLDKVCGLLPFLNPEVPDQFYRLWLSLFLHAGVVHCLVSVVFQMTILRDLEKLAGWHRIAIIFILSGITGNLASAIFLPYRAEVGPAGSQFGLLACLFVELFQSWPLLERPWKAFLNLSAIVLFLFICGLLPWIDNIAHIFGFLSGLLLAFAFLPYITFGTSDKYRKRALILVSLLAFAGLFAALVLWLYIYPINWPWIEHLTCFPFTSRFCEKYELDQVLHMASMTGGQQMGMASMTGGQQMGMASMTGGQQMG


How the values were obtained:
[1] = biological target: T1, hiR2-FL-S562E-T7; assay: FACS, MEF-DKO cells, 3 µg/ml
[2] = biological target: T2, hiR2-FL-Q527P-T7; assay: FACS, MEF-DKO cells, 3 µg/ml

Row | Binder | loss of binding vs wild type [1] [%] | loss of binding vs wild type [2] [%]
1 | antibody 48 (antibody, V domains shown, mouse IgG, kappa light chain; also called clone #48; purified antibody 48) VH: QVQLQQSGTELVRPGTSVKVSCKASGYAFTNYLIEWVKQRPGQGLEWIGVINPGSGFTKYNEKFKGKATLTADKSSSTVYMHLSSLTSEDSAVYFCARGLYRAMDYWGQGTSVTVSS VL: DIQMTQSPASQSASLGESVTITCLASQTIATWLAWYQQKPGKSPQLLIYGATTLADGVPSRFSGGGSGTKFSFKISSLQAEDFVSYYCQQLYSTPYTFGGGTKLEIK | ≥ 30 | ≥ 30
2 | antibody 50 (antibody, V domains shown, mouse IgG, kappa light chain; also called clone #50; purified antibody 50) VH: QVQLQQSGAELVRPGASVKVSCKASGYAFSNYLIEWVKQRPGQGLEWIGVINPGSGFTKYNEKFKGKATLTADKSSSTAYMQLSSLTSEDSAVYFCARGLYRAMDYWGQGTSVTVSS VL: DIQMTQSPASQSASLGESVTITCLASQTIGTWLAWYQQKPGKSPQLLIYAAASLADGVPSRFSGGGSGTKFSFKISSLQAEDFVNYYCQQIYSTPYTFGGGTKLEIK | ≥ 30 | ≥ 30
3 | antibody 34 (antibody, V domains shown, mouse IgG, kappa light chain; also called clone #34; purified antibody 34) VH: QVTLKESGPGILQPSQTLSLTCSFSGFSLSTFSLGVGWIRQSSGKGLEWLAHIWWDDEKYYNPALKSRLTISKDTSKNQVFLKIANVDAADTATYYCARAYYSKSYYALDYWGQGTSVTVSS VL: DIQMTQSPSSLSASLGERVSLTCRASQEISGYLSWLQQKPDGTIKRLIYAASTLDSGVPKRFSGSRSGSDYSLAISSLESEDFADYYCLQYANFPFTFGSGTKLEIK | ≥ 60 | 
4 | antibody 3 (antibody, V domains shown, mouse IgG, kappa light chain; also called clone #3; purified antibody 3) VH: QVTLKESGPGILQPSQTLSLTCSFSGFSLTTFAMGIGWVRQPSGKGLEWLAHIWWDGEKYNNPVLKSRLTISKDTSKNQVFLRIANVDTPDTATYYCARISSIYYIIDNWGQGTSVTVSS VL: DIVLTQSPATLSVTPGHSVSLSCRASQSISNNLHWYQKKSHESPRLLIKYVSQSISGIPSRFSGSGSGTDFTLSINSVETEDFGMYFCQQSYNWPLTFGAGTKLELK | ≥ 30 | ≥ 30
5 | antibody 5 (antibody, V domains shown, mouse IgG, kappa light chain; also called clone #5; purified antibody 5) VH: QVTLKESGPGILQPSQTLSLTCSFSGFSLSTFGMGVGWIRQPSGKGLEWLAHIWWDDEKYYNSALKSRLTISKATSKNQAFLKIANVDTADTATYYCARISNYGSNYWYFNVWGTGTTVTVSS VL: QVVLTQSPALMSASPGEKVTMTCSAGSSVSCMYWYQQKPGSSPRVLIYDTSNLASGVPARFTGSGSGTSYSLTISRMEAEDAASYYCQQWNSYPLTFGAGTKLELK | ≥ 60 | ≥ 60
6 | antibody 42 (antibody, V domains shown, mouse IgG, kappa light chain; also called clone #42; purified antibody 42) VH: QVTLKESGPGILQPSQTLSLTCSLSGFSLSTFGRGVGWIRQPSGKGLEWLAHIWWDDEKYYNPALKSRLTISKDTSKNQVFLRIANVDTADTATYYCARIQNYGSNYWYFDVWGTGTTVTVSS VL: LIVLTQSPAIMSASPGEKVTMTCGATSRISYMFWYQQKPGSSPRVLIYDTSNLASGVPVRFSGSGSGTSYSLTISRVEAEDVATYYCQQWNSYPLTFGAGTKLELK | ≥ 60 | ≥ 30
7 | antibody 43 (antibody, V domains shown, mouse IgG, kappa light chain; also called clone #43; purified antibody 43) VH: QVALKESGPGILQPSQTLSLTCSFSGFSLSTFGMGVGWIRQSSGKGLEWLANIWWDDDKYYNPALKSRLTISKDASKNQAFLKIANVDTADTATYYCARIGNYGSNYWYFDVWGTGTTVTVSS VL: QIVLTQSPAIMSASPGERVTMTCSANSRISYMYWYQQKPGSSPRLLIYDTSNLASGVPVRFSGSGSGTSYSLTISRMEAEDAATYNCQQWSSYPLTFGAGTKLELK | ≥ 60 | ≥ 60
8 | antibody 44 (antibody, V domains shown, mouse IgG, kappa light chain; also called clone #44; purified antibody 44) VH: QVTLKESGPGILQPSQTLSLTCSFSGFSLSTFGMGVGWIRQPSEKGLEWLAHIWWDDDKYYNPALKSRLTISKDTSKNQIFLKITNVDTAETATYYCSRIGNYGSNYWYFDVWGTGTTVTVSS VL: QIVLTQSPAVMSASPGEKVTMTCTASSSVYYMYWYQQTPGSSPRLLIYDTSNLASGVPVRFSGSGSGTSYSLTISRMEAEDAATYYCQQWNTYPLTFGAGTKLELK | ≥ 30 | ≥ 60
9 | antibody 22 (antibody, V domains shown, mouse IgG, kappa light chain; also called clone #22; purified antibody 22) VH: QVTLKESGPGILQPSQTLSLTCSFSGFSLSTFGMGVGWIRQPSGKGLEWLAHIWWDDEKYYNSALKSRLTISKATSKNQVFLKIANVDTADTATYYCARISNYGSNYWYFNVWGTGTTVTVSS VL: QVVLTQSPALMSASPGEKVTMTCSAGSSVSYMYWYQQKPGSSPRVLIYDTSNLASGVPARFTGSGSGTSYSLTISRMEAEDAATYYCQQWNSYPLTFGAGTKLELK | ≥ 30 | 
